Test results as given in patent US20200255543A1 (ROCKEFELLER UNIVERSITY, published 2020).

Key:
[1] = biological target: T1, recombinant human MERTK (human, UniProt Q12866 21-505, limits assumed); assay: biolayer interferometry, M6 loaded on AMQ sensor, hMer analyte from 5 nM in 2-fold dilutions, 1:1 model, global fit
T1 construct: Analyte in solution in biolayer interferometry; also called hMer
T1 sequence: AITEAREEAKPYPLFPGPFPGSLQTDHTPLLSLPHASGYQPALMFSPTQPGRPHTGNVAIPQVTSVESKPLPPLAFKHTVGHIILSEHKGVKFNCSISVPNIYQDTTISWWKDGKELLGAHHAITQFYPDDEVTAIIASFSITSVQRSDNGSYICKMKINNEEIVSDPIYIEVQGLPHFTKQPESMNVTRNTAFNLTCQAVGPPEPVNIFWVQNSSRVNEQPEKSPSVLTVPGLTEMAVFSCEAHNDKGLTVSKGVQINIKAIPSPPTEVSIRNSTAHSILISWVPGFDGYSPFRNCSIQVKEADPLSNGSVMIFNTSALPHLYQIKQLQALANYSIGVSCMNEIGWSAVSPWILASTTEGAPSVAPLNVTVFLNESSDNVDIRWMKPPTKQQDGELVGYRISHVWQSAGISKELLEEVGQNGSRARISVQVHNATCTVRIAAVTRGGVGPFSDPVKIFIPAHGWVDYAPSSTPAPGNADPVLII
Method: (§1) FIG. 11: M6 binds to MERTK with high affinity. M6 binds to human MERTK with high affinity. A diagram showing antibody binding kinetics for M6 (Mer-M6) against human MERTK (hMer) using biolayer interferometry. Purified M6 was loaded on an AMQ sensor at a concentration of 1 microgram/mL to test binding against analytes in solution. All analytes were prepared at 5 nM with a 2-fold dilution series for a total of 7 concentrations. Kinetic fits were calculated using a 1:1 model, with Local fits for each concentration as well as an overall Global fit.

[2] = biological target: T1, recombinant human MERTK; assay: biolayer interferometry, M6 loaded on AMQ sensor at 1 ug/mL, hMer in solution at 0.1563 nM, local 1:1 fit
Method: as §1

[3] = biological target: T1, recombinant human MERTK; assay: biolayer interferometry, M6 loaded on AMQ sensor at 1 ug/mL, hMer in solution at 1.25 nM, local 1:1 fit
Method: as §1

[4] = biological target: T1, recombinant human MERTK; assay: biolayer interferometry, M6 loaded on AMQ sensor at 1 ug/mL, hMer in solution at 2.5 nM, local 1:1 fit
Method: as §1

[5] = biological target: T1, recombinant human MERTK; assay: biolayer interferometry, M6 loaded on AMQ sensor at 1 ug/mL, hMer in solution at 0.0781 nM, local 1:1 fit
Method: as §1

[6] = biological target: T1, recombinant human MERTK; assay: biolayer interferometry, M6 loaded on AMQ sensor at 1 ug/mL, hMer in solution at 0.625 nM, local 1:1 fit
Method: as §1

[7] = biological target: T1, recombinant human MERTK; assay: biolayer interferometry, M6 loaded on AMQ sensor at 1 ug/mL, hMer in solution at 0.3125 nM, local 1:1 fit
Method: as §1

[8] = biological target: T1, recombinant human MERTK; assay: biolayer interferometry, M6 loaded on AMQ sensor at 1 ug/mL, hMer in solution at 5 nM, local 1:1 fit
Method: as §1

[9] = biological target: T1, recombinant human MERTK; assay: biolayer interferometry, M6 loaded on AMQ sensor at 1 ug/mL, hMer in solution at 5 to 0.0781 nM, global 1:1 fit
Method: as §1

Kd [1]: 4.6 pM | Kd [2]: 0.0652 pM | koff [2]: 9.22e-07 s⁻¹ | kon [2]: 1.41e+07 M⁻¹ s⁻¹ | Kd [3]: 49.8 pM | koff [3]: 0.000156 s⁻¹ | kon [3]: 3.12e+06 M⁻¹ s⁻¹ | Kd [4]: 2.09 pM | koff [4]: 4.46e-06 s⁻¹ | kon [4]: 2.13e+06 M⁻¹ s⁻¹ | Kd [5]: 0.823 pM | koff [5]: 2.49e-05 s⁻¹ | kon [5]: 3.03e+07 M⁻¹ s⁻¹ | Kd [6]: 0.0131 pM | koff [6]: 7.27e-08 s⁻¹ | kon [6]: 5.57e+06 M⁻¹ s⁻¹ | Kd [7]: 0.00312 pM | koff [7]: 3.3e-08 s⁻¹ | kon [7]: 1.06e+07 M⁻¹ s⁻¹ | Kd [8]: 0.634 pM | koff [8]: 1.5e-06 s⁻¹ | kon [8]: 2.37e+06 M⁻¹ s⁻¹ | koff [9]: 9.55e-06 s⁻¹ | kon [9]: 2.07e+06 M⁻¹ s⁻¹
B1: monoclonal antibody M6 (antibody, V domains shown)
VH: QVKLEESGPELKKPGETVKISCKASGYTFTNYGMNWVKQAPGKGLKWMGWINTYTGEPTYADDFKGRFVFSLETSASTAYLQINNLKNEDMATYFCARKSTVVSRYFDVWGAGTTVTVSS
VL: DIVLTQTHKFMSTSVGDRVSITCKASQDVGDAVTWCQQKPGQPPKLLIYWASTRHTGVPDRFTGSGSGTDFTLTINNVQSEDLADYFCQQYRSYPLTFGAGTKLELKR
notes: Mouse hybridoma monoclonal antibody; Hybridoma supernatant was used in the ELISA screen, purified antibody in biolayer interferometry; also called Mer-M6
